From US20220119534A1 (DRAGONFLY THERAPEUTICS, published 2022)

Legend:
[1] = molecular target: T1, Human CLEC12A-His (human, UniProt Q5QGZ9 65-265); test: SPR Biacore 8K 37 C; TriNKET captured on anti-hFc chip, hCLEC12A-His as analyte; 1:1 fit; after 4 wks 40 C in HST pH 6.0, n=2
T1 construct: Recombinant soluble protein made in house (Dragonfly Tx); The hCLEC12A spot of the HuProt array is written under this molecule as well; also called hCLEC12A-His; hCLEC12A; not shown: His tag
T1 sequence: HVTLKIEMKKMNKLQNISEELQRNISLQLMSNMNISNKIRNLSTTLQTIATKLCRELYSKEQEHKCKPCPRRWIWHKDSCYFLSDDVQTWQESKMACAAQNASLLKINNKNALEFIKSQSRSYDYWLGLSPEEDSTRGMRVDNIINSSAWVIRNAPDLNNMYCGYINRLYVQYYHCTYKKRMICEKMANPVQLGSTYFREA

[2] = molecular target: T2, human CLEC12A on cells (HL60, PL21, Ba/F3-hCLEC12A) (human, UniProt Q5QGZ9 1-265); test: flow cytometry, PL21 cells
T2 construct: Endogenous on the AML lines HL60 and PL21; brought into mouse Ba/F3 cells by retroviral transduction; The cell line stands under assay; also called CLL-1
T2 sequence: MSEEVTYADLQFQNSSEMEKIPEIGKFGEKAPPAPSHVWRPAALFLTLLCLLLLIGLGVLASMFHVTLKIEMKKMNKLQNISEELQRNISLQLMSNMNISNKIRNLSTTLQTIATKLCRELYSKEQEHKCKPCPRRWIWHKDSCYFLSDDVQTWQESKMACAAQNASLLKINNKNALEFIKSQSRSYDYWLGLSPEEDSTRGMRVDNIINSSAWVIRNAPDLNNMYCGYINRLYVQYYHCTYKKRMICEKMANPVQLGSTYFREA

[3] = molecular target: T3, Human CLEC12A-His (human, UniProt Q5QGZ9 65-265); test: SPR; sample after low pH hold
T3 construct: Recombinant soluble protein made in house; also called hCLEC12A-His; hCLEC12A; not shown: His tag
T3 sequence: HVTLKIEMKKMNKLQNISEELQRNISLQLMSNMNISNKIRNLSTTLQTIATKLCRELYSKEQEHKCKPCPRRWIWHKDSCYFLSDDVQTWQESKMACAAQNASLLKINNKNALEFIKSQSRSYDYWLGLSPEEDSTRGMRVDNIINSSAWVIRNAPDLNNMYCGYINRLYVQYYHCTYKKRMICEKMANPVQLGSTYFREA

[4] = molecular target: T4, mFc-hNKG2D (human, UniProt P26718 73-216); test: SPR; sample after low pH hold
T4 construct: extracellular domain; Recombinant mFc-tagged NKG2D dimer, made in house; also called human NKG2D; not shown: mouse Fc tag
T4 sequence (looked up): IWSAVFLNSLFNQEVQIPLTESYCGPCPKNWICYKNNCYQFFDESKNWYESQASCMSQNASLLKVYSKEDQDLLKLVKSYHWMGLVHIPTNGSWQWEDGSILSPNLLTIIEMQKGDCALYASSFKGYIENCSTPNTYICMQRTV

[5] = molecular target: T5, Human CD16a V158 (human, UniProt P08637 17-208, biotinylated); test: SPR; sample after low pH hold
T5 construct: Bought recombinant receptor; also called hCD16a (V158); hFcγRIIIa V158

[6] = molecular target: T2, human CLEC12A on cells (HL60, PL21, …); test: flow cytometry, 40 nM, MFI after 2 h 37 C relative to 2 h on ice, HL60 cells
[7] = molecular target: T6, recombinant human FcRn (human, UniProt P55899 24-297; P61769 21-119); test: SPR 25C, pH 6.0, steady state; pH 6.0; second replicate
T6 construct: also called hFcRn
T6 sequence (P55899 24-297 limits assumed, chain 1 of 2): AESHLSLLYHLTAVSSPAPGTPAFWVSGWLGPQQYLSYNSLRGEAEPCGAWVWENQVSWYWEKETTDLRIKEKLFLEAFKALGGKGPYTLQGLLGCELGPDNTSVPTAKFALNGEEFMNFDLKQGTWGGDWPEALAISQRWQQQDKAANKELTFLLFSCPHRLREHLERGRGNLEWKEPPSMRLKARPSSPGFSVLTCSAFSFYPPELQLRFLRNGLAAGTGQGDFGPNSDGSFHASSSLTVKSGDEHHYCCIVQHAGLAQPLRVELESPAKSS
T6 sequence (P61769 21-119 limits assumed, chain 2 of 2): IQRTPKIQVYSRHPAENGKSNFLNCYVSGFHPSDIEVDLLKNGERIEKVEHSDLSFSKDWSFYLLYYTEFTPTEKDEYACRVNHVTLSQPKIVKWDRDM

T5 sequence (P08637 17-208 F176V limits assumed): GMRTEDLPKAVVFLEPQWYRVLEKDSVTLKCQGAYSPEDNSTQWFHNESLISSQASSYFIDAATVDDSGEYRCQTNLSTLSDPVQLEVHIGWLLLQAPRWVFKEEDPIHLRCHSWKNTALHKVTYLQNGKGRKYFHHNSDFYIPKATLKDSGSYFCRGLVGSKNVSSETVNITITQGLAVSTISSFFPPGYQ

B1: F3'-1602 TriNKET (bispecific antibody, human IgG1, kappa)
chain: QLQLQESGPGLVKPSETLSLTCTVSGFSLTNYGLHWIRQPPGKCLEWIGVIWSGGKTDYNPSLKSRVTISKDTSKNQFSLKLSSVQAADTAVYYCAKYDYDDSLDYWGQGTLVTVSSGGGGSGGGGSGGGGSGGGGSDIQMTQSPSSLSASVGDRVTITCHASQNINFWLSWYQQKPGKAPKLLIYEASNLHTGVPSRFSGSGSGTRFTLTISSLQPEDIATYYCQQSHSYPLTFGCGTKLEIKGSDKTHTCPPCPAPELLGGPSVFLFPPKPKDTLMISRTPEVTCVVVDVSHEDPEVKFNWYVDGVEVHNAKTKPREEQYNSTYRVVSVLTVLHQDWLNGKEYKCKVSNKALPAPIEKTISKAKGQPREPRVYTLPPCRDELTKNQVSLTCLVKGFYPSDIAVEWESNGQPENNYKTTPPVLVSDGSFTLYSKLTVDKSRWQQGNVFSCSVMHEALHNHYTQKSLSLSPG
heavy: EVQLVESGGGLVKPGGSLRLSCAASGFTFSSYSMNWVRQAPGKGLEWVSSISSSSSYIYYADSVKGRFTISRDNAKNSLYLQMNSLRAEDTAVYYCARGAPIGAAAGWFDPWGQGTLVTVSSASTKGPSVFPLAPSSKSTSGGTAALGCLVKDYFPEPVTVSWNSGALTSGVHTFPAVLQSSGLYSLSSVVTVPSSSLGTQTYICNVNHKPSNTKVDKKVEPKSCDKTHTCPPCPAPELLGGPSVFLFPPKPKDTLMISRTPEVTCVVVDVSHEDPEVKFNWYVDGVEVHNAKTKPREEQYNSTYRVVSVLTVLHQDWLNGKEYKCKVSNKALPAPIEKTISKAKGQPREPQVCTLPPSRDELTENQVSLTCLVKGFYPSDIAVEWESNGQPENNYKTTPPVLDSDGSFFLYSWLTVDKSRWQQGNVFSCSVMHEALHNHYTQKSLSLSPG
light: DIQMTQSPSSVSASVGDRVTITCRASQGISSWLAWYQQKPGKAPKLLIYAASSLQSGVPSRFSGSGSGTDFTLTISSLQPEDFATYYCQQGVSFPRTFGGGTKVEIKRTVAAPSVFIFPPSDEQLKSGTASVVCLLNNFYPREAKVQWKVDNALQSGNSQESVTEQDSKDSTYSLSSTLTLSKADYEKHKVYACEVTHQGLSSPVTKSFNRGEC
notes: Trispecific F3' format: CLEC12A scFv-Fc paired with NKG2D Fab-Fc; Stressed and control samples of the stability studies are the same molecule; also called AB0237
[1]
  Kd: 1.69 nM
  koff: 0.00214 s⁻¹
  kon: 1.24e+06 M⁻¹ s⁻¹

B2: AB0192 TriNKET (other)
chain: EVQLVESGGGVVQPGGSLRLSCAASGFTFNAFGMHWVRQAPGKCLEWVAFISSGSTSIYYANTVKGRFTISRDNSKNTLYLQMNSLRAEDTAVYYCARDGYPTGGAMDYWGQGTSVTVSSGGGGSGGGGSGGGGSGGGGSDIQMTQSPSSLSASVGDRVTITCKASQDIYNYLSWFQQKPGKAPKPLIYRANILVSGVPSRFSGSGSGQDYTFTISSLQPEDIATYYCLQFDAFPFTFGCGTKLEIKGSDKTHTCPPCPAPELLGGPSVFLFPPKPKDTLMISRTPEVTCVVVDVSHEDPEVKFNWYVDGVEVHNAKTKPREEQYNSTYRVVSVLTVLHQDWLNGKEYKCKVSNKALPAPIEKTISKAKGQPREPRVYTLPPCRDELTKNQVSLTCLVKGFYPSDIAVEWESNGQPENNYKTTPPVLVSDGSFTLYSKLTVDKSRWQQGNVFSCSVMHEALHNHYTQKSLSLSPG
heavy: EVQLVESGGGLVKPGGSLRLSCAASGFTFSSYSMNWVRQAPGKGLEWVSSISSSSSYIYYADSVKGRFTISRDNAKNSLYLQMNSLRAEDTAVYYCARGAPIGAAAGWFDPWGQGTLVTVSSASTKGPSVFPLAPSSKSTSGGTAALGCLVKDYFPEPVTVSWNSGALTSGVHTFPAVLQSSGLYSLSSVVTVPSSSLGTQTYICNVNHKPSNTKVDKKVEPKSCDKTHTCPPCPAPELLGGPSVFLFPPKPKDTLMISRTPEVTCVVVDVSHEDPEVKFNWYVDGVEVHNAKTKPREEQYNSTYRVVSVLTVLHQDWLNGKEYKCKVSNKALPAPIEKTISKAKGQPREPQVCTLPPSRDELTENQVSLTCLVKGFYPSDIAVEWESNGQPENNYKTTPPVLDSDGSFFLYSWLTVDKSRWQQGNVFSCSVMHEALHNHYTQKSLSLSPG
light: DIQMTQSPSSVSASVGDRVTITCRASQGISSWLAWYQQKPGKAPKLLIYAASSLQSGVPSRFSGSGSGTDFTLTISSLQPEDFATYYCQQGVSFPRTFGGGTKVEIKRTVAAPSVFIFPPSDEQLKSGTASVVCLLNNFYPREAKVQWKVDNALQSGNSQESVTEQDSKDSTYSLSSTLTLSKADYEKHKVYACEVTHQGLSSPVTKSFNRGEC
notes: the condition stands under assay; also called AB0192 Lot AB0192-005
[2]
  EC50: 0.37 nM
  FOB (fold over background): 12 fold
[3]
  Kd: 1.66 nM
  koff: 0.00115 s⁻¹
  kon: 690000 M⁻¹ s⁻¹
[4]
  Kd: 796 nM
  koff: 0.142 s⁻¹
  kon: 178000 M⁻¹ s⁻¹
[5]
  Kd: 180 nM
  koff: 0.0212 s⁻¹
  kon: 118000 M⁻¹ s⁻¹
[6]
  percent surface retention: 103%

B3: F3'-1602 TriNKET (other)
chain: QLQLQESGPGLVKPSETLSLTCTVSGFSLTNYGLHWIRQPPGKCLEWIGVIWSGGKTDYNPSLKSRVTISKDTSKNQFSLKLSSVQAADTAVYYCAKYDYDDSLDYWGQGTLVTVSSGGGGSGGGGSGGGGSGGGGSDIQMTQSPSSLSASVGDRVTITCHASQNINFWLSWYQQKPGKAPKLLIYEASNLHTGVPSRFSGSGSGTRFTLTISSLQPEDIATYYCQQSHSYPLTFGCGTKLEIKGSDKTHTCPPCPAPELLGGPSVFLFPPKPKDTLMISRTPEVTCVVVDVSHEDPEVKFNWYVDGVEVHNAKTKPREEQYNSTYRVVSVLTVLHQDWLNGKEYKCKVSNKALPAPIEKTISKAKGQPREPRVYTLPPCRDELTKNQVSLTCLVKGFYPSDIAVEWESNGQPENNYKTTPPVLVSDGSFTLYSKLTVDKSRWQQGNVFSCSVMHEALHNHYTQKSLSLSPG
heavy: EVQLVESGGGLVKPGGSLRLSCAASGFTFSSYSMNWVRQAPGKGLEWVSSISSSSSYIYYADSVKGRFTISRDNAKNSLYLQMNSLRAEDTAVYYCARGAPIGAAAGWFDPWGQGTLVTVSSASTKGPSVFPLAPSSKSTSGGTAALGCLVKDYFPEPVTVSWNSGALTSGVHTFPAVLQSSGLYSLSSVVTVPSSSLGTQTYICNVNHKPSNTKVDKKVEPKSCDKTHTCPPCPAPELLGGPSVFLFPPKPKDTLMISRTPEVTCVVVDVSHEDPEVKFNWYVDGVEVHNAKTKPREEQYNSTYRVVSVLTVLHQDWLNGKEYKCKVSNKALPAPIEKTISKAKGQPREPQVCTLPPSRDELTENQVSLTCLVKGFYPSDIAVEWESNGQPENNYKTTPPVLDSDGSFFLYSWLTVDKSRWQQGNVFSCSVMHEALHNHYTQKSLSLSPG
light: DIQMTQSPSSVSASVGDRVTITCRASQGISSWLAWYQQKPGKAPKLLIYAASSLQSGVPSRFSGSGSGTDFTLTISSLQPEDFATYYCQQGVSFPRTFGGGTKVEIKRTVAAPSVFIFPPSDEQLKSGTASVVCLLNNFYPREAKVQWKVDNALQSGNSQESVTEQDSKDSTYSLSSTLTLSKADYEKHKVYACEVTHQGLSSPVTKSFNRGEC
notes: CLEC12A scFv-Fc, NKG2D A49MI Fab-Fc, human IgG1 Fc; also called AB0237
[7]
  Kd: 1100 nM
